# B1: Non-structural maintenance of chromosomes element 3 homolog (Homo sapiens), Q96MG7 (parent)
# chain: MLQKPRNRGRSGGQAERDRDWSHSGNPGASRAGEDARVLRDGFAEEAPSTSRGPGGSQGSQGPSPQGARRAQAAPAVGPRSQKQLELKVSELVQFLLIKDQKKIPIKRADILKHVIGDYKDIFPDLFKRAAERLQYVFGYKLVELEPKSNTYILINTLEPVEEDAEMRGDQGTPTTGLLMIVLGLIFMKGNTIKETEAWDFLRRLGVYPTKKHLIFGDPKKLITEDFVRQRYLEYRRIPHTDPVDYEFQWGPRTNLETSKMKVLKFVAKVHNQDPKDWPAQYCEALADEENRARPQPSGPAPSS
# partner: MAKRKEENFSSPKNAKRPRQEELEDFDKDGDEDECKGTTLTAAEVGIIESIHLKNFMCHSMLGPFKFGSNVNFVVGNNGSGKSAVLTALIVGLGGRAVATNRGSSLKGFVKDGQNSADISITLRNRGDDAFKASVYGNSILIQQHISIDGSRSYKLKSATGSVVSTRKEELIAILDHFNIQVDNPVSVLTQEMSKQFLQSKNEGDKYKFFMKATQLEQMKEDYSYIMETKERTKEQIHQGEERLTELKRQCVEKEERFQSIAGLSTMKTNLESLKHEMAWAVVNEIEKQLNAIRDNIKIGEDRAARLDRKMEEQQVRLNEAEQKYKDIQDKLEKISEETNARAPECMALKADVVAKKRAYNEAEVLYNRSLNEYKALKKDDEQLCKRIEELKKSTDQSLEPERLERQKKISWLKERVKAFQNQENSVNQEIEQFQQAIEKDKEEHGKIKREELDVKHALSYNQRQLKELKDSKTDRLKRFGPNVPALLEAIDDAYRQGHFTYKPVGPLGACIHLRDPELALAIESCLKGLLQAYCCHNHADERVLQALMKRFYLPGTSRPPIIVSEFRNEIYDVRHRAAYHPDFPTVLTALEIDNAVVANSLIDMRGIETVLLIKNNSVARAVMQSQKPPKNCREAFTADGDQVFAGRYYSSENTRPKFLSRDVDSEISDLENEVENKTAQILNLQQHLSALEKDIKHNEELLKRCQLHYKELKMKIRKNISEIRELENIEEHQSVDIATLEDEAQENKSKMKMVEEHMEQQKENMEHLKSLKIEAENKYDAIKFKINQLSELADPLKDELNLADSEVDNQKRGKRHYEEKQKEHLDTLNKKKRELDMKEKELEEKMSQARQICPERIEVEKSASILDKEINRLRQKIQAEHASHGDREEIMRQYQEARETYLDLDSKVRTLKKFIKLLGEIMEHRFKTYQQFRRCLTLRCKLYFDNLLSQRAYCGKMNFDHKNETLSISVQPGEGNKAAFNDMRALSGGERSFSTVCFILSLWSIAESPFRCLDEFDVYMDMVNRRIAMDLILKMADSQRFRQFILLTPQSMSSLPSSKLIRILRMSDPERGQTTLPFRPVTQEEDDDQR
# B2: Non-structural maintenance of chromosomes element 3 homolog (Homo sapiens), Q96MG7 (parent)
# chain: B1 chain
# partner: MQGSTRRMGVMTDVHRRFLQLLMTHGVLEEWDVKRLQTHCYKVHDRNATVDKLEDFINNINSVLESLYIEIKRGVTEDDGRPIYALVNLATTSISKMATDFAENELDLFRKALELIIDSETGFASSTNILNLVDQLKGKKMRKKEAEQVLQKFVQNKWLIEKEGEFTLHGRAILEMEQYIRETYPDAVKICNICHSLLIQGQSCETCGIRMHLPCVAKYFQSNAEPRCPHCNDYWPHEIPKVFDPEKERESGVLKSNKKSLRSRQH
# B3: Non-structural maintenance of chromosomes element 3 homolog (Homo sapiens), Q96MG7 (parent)
# chain: B1 chain
# partner: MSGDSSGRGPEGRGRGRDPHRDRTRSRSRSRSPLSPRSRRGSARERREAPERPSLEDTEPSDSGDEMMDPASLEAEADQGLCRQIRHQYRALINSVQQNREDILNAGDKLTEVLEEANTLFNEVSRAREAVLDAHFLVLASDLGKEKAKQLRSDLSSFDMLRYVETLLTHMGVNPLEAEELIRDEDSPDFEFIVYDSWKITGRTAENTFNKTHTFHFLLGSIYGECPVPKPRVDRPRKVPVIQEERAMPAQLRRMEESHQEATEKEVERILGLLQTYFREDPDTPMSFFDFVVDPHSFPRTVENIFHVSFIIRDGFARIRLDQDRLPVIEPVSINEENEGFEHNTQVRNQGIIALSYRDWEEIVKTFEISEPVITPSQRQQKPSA
# Variants of: B1
# Details: with smc6_human SMC6, Q96SB8
row,effect of a mutation on the interaction,Variant
1,disrupting interaction strength,L264F

# Variants of: B2
# Details: with nse1_human NSMCE1, Q8WV22
row,effect of a mutation on the interaction,Variant
1,with no effect,F266A
2,decreasing interaction strength,P209L
3,disrupting interaction strength,L97A
4,with no effect,L264F

# Variants of: B2
# Details: with nse1_human NSMCE1, Q8WV22
# Remark: another data set of the same source
row,effect of a mutation on the interaction,Variant
1,decreasing interaction strength,L264F

# Variants of: B3
# Details: with nse4a_human NSMCE4A
row,effect of a mutation on the interaction,Variant
1,disrupting interaction strength,L264F
2,disrupting interaction strength,F266A
3,disrupting interaction strength,P209L
4,with no effect,L97A

# Reference: IntAct's records for PubMed 27427983
